The target in test [1] is T1, original 2019-nCoV spike trimer (SARS-CoV-2 original 2019-nCoV …, UniProt P0DTC2, 2 prolines (P986–P987) | residues 682–685 mutated to GSAS). Nature of the test: Luminex bead-based binding assay. As to conditions: both partners purified.
Test [2] deals with Delta (B.1.617.2) variant spike trimer (SARS-CoV-2 Delta (B.1.617.2), 2 prolines (P986–P987) | residues 682–685 mutated to GSAS). Nature of the test: cell-based or functional assay.
Test [3] addresses D614G mutant spike trimer (SARS-CoV-2 2019-nCoV D614G, D614G | 2 prolines (P986–P987) | residues 682–685 mutated to GSAS). Description: cell-based or functional assay.
The target in test [4] is Beta (B.1.351) variant spike trimer (SARS-CoV-2 Beta (B.1.351), 2 prolines (P986–P987) | residues 682–685 mutated to GSAS). Description: cell-based or functional assay.
Test [5] concerns the target Gamma (P.1) variant spike trimer (SARS-CoV-2 Gamma (P.1), 2 prolines (P986–P987) | residues 682–685 mutated to GSAS). Description: cell-based or functional assay.
The target in test [6] is Alpha (B.1.1.7) variant spike trimer (SARS-CoV-2 Alpha (B.1.1.7), 2 prolines (P986–P987) | residues 682–685 mutated to GSAS). Nature of the test: cell-based or functional assay.
In test [7] the target is T1, original 2019-nCoV spike trimer. Nature of the test: Luminex spike-ACE2 surrogate neutralization assay. As to conditions: both partners purified.

B1: P2G3 LS human IgG1 monoclonal antibody (antibody, V domains shown)
VH: EVQLVESGGGLVQPGRSLRLSCAASGFRFDDYALHWVRQAPEKGLEWVSGISWNSNNIGYAESVKGRFTISRDTAKKSLYLQMNDLRAEDTALYYCVKDRHYDSSGYFVNGFDIWGQGTLVTVSA
VL: DIQLTQSPSFLSASVGDRVTVTCRASQGISSYVAWYQQKAGKAPTLLIYTASTLQSGVPSRFSGSGSGTEFTLTISSLQPEDFATYYCQQLHSYPVTFGQGTRLDIE
For the molecule B1, the binding result in test [1] is “binds”. Moreover, the “IC80, live SARS-CoV-2 cytopathic effect neutralization assay, Vero E6 cells” value is 0.024 µg/mL in test [2]; 0.028 µg/mL in test [3]; 0.017 µg/mL in test [4]; 0.021 µg/mL in test [5]; 0.01 µg/mL in test [6].

B2: P5C3 LS monoclonal antibody (antibody, V domains shown)
VH: QMQLVQSGPEVKKPGTSVKVSCKASGFTFTSSAVQWVRQARGQRLEWIGWIVVGSGNTDYAQQFQERVTITRDMSTSTAYMELSSLGSEDTAVYYCAAPNCSGGSCYDGFDLWGQGTMVTVSS
VL: EIVLTQSPGTLSLSPGERATLSCRGSQSVRSSYLGWYQQKPGQAPRLLIYGASSRATGIPDRFSGSGSGTDFTLTISRLEPEDFAVYYCQQYGSSPWTFGQGTKVEIK
For B2, in test [7], the binding result is “binds”.

These data come from PMC9418005 (Nature Microbiology, 2022).
